This assay deals with Helicobacter pylori CCUG 17874 L-asparaginase (Helicobacter pylori CCUG 17874) (UniProt O25424). Nature of the assay: non-reducing SDS-PAGE with LC-MS/MS of the band; active Superdex 75 fractions of BCF, mixed with non-reducing SDS buffer, 10-12% SDS-PAGE; band at about 121 kDa cut out, trypsin digested and identified by LC-MS/MS.

The text below walks through data of paper PMC2976697.

“Helicobacter pylori CCUG 17874 L-asparaginase (from UniProt O25424 1-330) (enzyme)” came in with a stoichiometry N of 4.
